Reference: PMC8718881, “Engineering of the Recombinant Expression and PEGylation Efficiency of the Therapeutic Enzyme Human Thymidine Phosphorylase” (Frontiers in Bioengineering and Biotechnology, 2021)

Biological target: the molecule itself
Assay: SEC; analytical SEC; purified protein about 2 mg/ml in PBS; TSKgel G4000SWxl; mobile phase 90% phosphate buffer (50 mM sodium phosphate, 200 mM NaCl, pH 7.2) and 10% ethanol; BioRad gel filtration standard as markers

B1: HsTP^218 (human thymidine phosphorylase truncated before K34, C-terminal His6-tag) (enzyme)
chain: MGKQLPELIRMKRDGGRLSEADIRGFVAAVVNGSAQGAQIGAMLMAIRLRGMDLEETSVLTQALAQSGQQLEWPEAWRQQLVDKHSTGGVGDKVSLVLAPALAACGCKVPMISGRGLGHTGGTLDKLESIPGFNVIQSPEQMQVLLDQAGCCIVGQSEQLVPADGILYAARDVTATVDSLPLITASILSKKLVEGLSALVVDVKFGGAAVFPNQEQARELAKTLVGVGASLGLRVAAALTAMDKPLGRCVGHALEVEEALLCMDGAGPPDLRDLVTTLGGALLWLSGHAGTQAQGAARVAAALDDGSALGRFERMLAAQGVDPGLARALCSGSPAERRQLLPRAREQEELLAPADGTVELVRALPLALVLHELGAGRSRAGEPLRLGVGAELLVDVGQRLRRGTPWLRVHRDGPALSGPQSRALQEALVLSDRAPFAAPSPFAELVLPPQQ
notes: starting methionine and a glycine scar residue from cloning with the NcoI site; they precede K34 (M1-G2-K3-Q4); human thymidine phosphorylase (HsTP, TYMP), lacking the first thirty-three residues of the full-length protein; starts at K34, full-length numbering of UniProt P19971; Codon-optimized synthetic gene in pET28a; No cleavage of the His6-tag is described; also called expression-optimized …
stoichiometry N: 2
